This data set has as its system HIV-AB-KOX (synthetic construct). Briefly: cell_activity. Conditions: LTR-luciferase, Jurkat, Tat+PMA+PHA.

The sequence “AGCTTTCTACAAGGGACTTTCCGCTGGGGACTTTCCAGGGAGGCGTGGCCTGGGCGGGACTGGGGAGTGGCGTCCCTCAGATGCTGCATATAAGCAGCTGCTTTTTGCCTGTACTGGGTCTCTCTGGTTAGACCAGATCTGAGCCTGGGAGCTCTCTGGCTAACTAGGGAACCC (double strand) [HIV-1 LTR reporter]” showed an activity of 96 % inhibition.

These data come from patent US20040039175.
